According to paper PMC3970815 (Biochemistry, 2014):
Ends that are not written are not given here. fluorescein = fluorescein label, on the N-terminus

Target: T1, fluorescein-labeled consensus propeptide (FpCon)
T1 peptide: fluorescein-AVFLSREQANQVLQRRRR
Test: fluorescence polarisation

B1: Wild-type human gamma-glutamyl carboxylase (GGCX) with a carboxyl-terminal 12-amino acid epitope tag, embedded in DOPC/MSP1D1 nanodiscs (enzyme, UniProt P38435 1-758, looked up)
chain: MAVSAGSARTSPSSDKVQKDKAELISGPRQDSRIGKLLGFEWTDLSSWRRLVTLLNRPTDPASLAVFRFLFGFLMVLDIPQERGLSSLDRKYLDGLDVCRFPLLDALRPLPLDWMYLVYTIMFLGALGMMLGLCYRISCVLFLLPYWYVFLLDKTSWNNHSYLYGLLAFQLTFMDANHYWSVDGLLNAHRRNAHVPLWNYAVLRGQIFIVYFIAGVKKLDADWVEGYSMEYLSRHWLFSPFKLLLSEELTSLLVVHWGGLLLDLSAGFLLFFDVSRSIGLFFVSYFHCMNSQLFSIGMFSYVMLASSPLFCSPEWPRKLVSYCPRRLQQLLPLKAAPQPSVSCVYKRSRGKSGQKPGLRHQLGAAFTLLYLLEQLFLPYSHFLTQGYNNWTNGLYGYSWDMMVHSRSHQHVKITYRDGRTGELGYLNPGVFTQSRRWKDHADMLKQYATCLSRLLPKYNVTEPQIYFDIWVSINDRFQQRIFDPRVDIVQAAWSPFQRTSWVQPLLMDLSPWRAKLQEIKSSLDNHTEVVFIADFPGLHLENFVSEDLGNTSIQLLQGEVTVELVAEQKNQTLREGEKMQLPAGEYHKVYTTSPSPSCYMYVYVNTTELALEQDLAYLQELKEKVENGSETGPLPPELQPLLEGEVKGGPEPTPLVQTFLRRQQRLQEIERRRNTPFHERFFRFLLRKLYVFRRSFLMTCISLRNLILGRPSLEQLAQEVTYANLRPFEAVGELNPSNTDSSHSNPPESNPDPVHSEF
modifications: glycoprotein (glycosylation sites shown in Figure 3); disulfide bond between cysteine 99 and cysteine 450
- stoichiometry N: 1 propeptide per GGCX-nanodisc
